Biological target: Cytochrome-C, type III (Sigma C-2506) (UniProt P00004)
Assay: SDS-PAGE of the methanol precipitate

Sequence of Cytochrome-C, type III (Sigma C-2506), P00004 1-105 (natural protein; other documents disagree on this pair) (P00004 whole entry): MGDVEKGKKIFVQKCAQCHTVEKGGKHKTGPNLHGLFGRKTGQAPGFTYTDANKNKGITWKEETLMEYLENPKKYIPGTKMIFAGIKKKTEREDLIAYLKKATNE

For “Cytochrome-C, type III (Sigma C-2506), P00004 1-105 (natural protein; other documents disagree on this pair)”, the stoichiometry N was over 7.

— publication PMC6806390
